T1: FcγRIIa type R extracellular domain with C-terminal His tag (human, UniProt P12318 34-217)
T1 chain: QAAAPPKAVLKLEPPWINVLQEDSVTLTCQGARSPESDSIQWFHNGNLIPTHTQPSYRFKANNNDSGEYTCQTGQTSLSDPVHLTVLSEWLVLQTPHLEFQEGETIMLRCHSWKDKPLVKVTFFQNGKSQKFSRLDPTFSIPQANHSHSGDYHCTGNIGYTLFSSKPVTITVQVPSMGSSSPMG

T2: FcγRIIb extracellular domain with C-terminal His tag (human, UniProt P31994 43-217)
T2 construct: extracellular domain; For crystallography it was expressed with kifunensine and trimmed with Endo F1; also called FcgRIIb; FcγRIIb extracellular region; not shown: His tag attached to the C terminus
T2 sequence (looked up): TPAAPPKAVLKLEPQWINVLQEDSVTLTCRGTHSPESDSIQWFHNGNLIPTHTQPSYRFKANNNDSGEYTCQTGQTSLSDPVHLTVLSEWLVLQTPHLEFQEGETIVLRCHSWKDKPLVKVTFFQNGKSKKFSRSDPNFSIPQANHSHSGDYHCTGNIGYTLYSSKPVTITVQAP


What was measured:
[1] = biological target: T1, FcγRIIa type R extracellular domain …; assay: SPR binding amount, relative to GpH7-AP001/GpH7-BF648/GpL16-k0
[2] = biological target: T2, FcγRIIb extracellular domain with …; assay: as above
[3] = biological target: T2, FcγRIIb extracellular domain with …; assay: SPR binding amounts, FcgRIIb divided by FcgRIIaR

| binding amount to FcgRIIaR when that of GpH7-AP001/GpH7-BF648 is defined as 100 [1] | binding amount to FcgRIIb when that of GpH7-AP001/GpH7-BF648 is defined as 100 [2] | amount binding to FcgRIIb/amount binding to FcgRIIaR [3] | Binder |
| --- | --- | --- | --- |
| 515 | 65 | 0.5 | GpH7-G1d/GpL16-k0 (antibody, human IgG1, kappa, Anti-glypican 3 IgG1 without C-terminal Gly and Lys) heavy: not shown light: DIVMTQSPLSLPVTPGEPASISCQASESLVHSNRNTYLHWYLQKPGQSPQLLIYKVSNRFSGVPDRFSGSGSGTDFTLKISRVEAEDVGVYYCSQNTHVPPTFGQGTKVEIERTVAAPSVFIFPPSDEQLKSGTASVVCLLNNFYPREAKVQWKVDNALQSGNSQESVTEQDSKDSTYSLSSTLTLSKADYEKHKVYACEVTHQGLSSPVTKSFNRGEC |
| 100 | 100 | 4 | GpH7-AP001/GpH7-BF648/GpL16-k0 (antibody, human IgG1, kappa, name in EU numbering, Heterodimerized anti-glypican 3 IgG1; P238D in both chains) heavy 1: QVQLVQSGAEVKKPGASVTVSCKASGYTFTDYEMHWIRQPPGEGLEWIGAIDPKTGDTAYSESFQDRVTLTADKSTSTAYMELSSLTSEDTAVYYCTRFYSYTYWGQGTLVTVSSASTKGPSVFPLAPSSKSTSGGTAALGCLVKDYFPEPVTVSWNSGALTSGVHTFPAVLQSSGLYSLSSVVTVPSSSLGTQTYICNVNHKPSNTKVDKKVEPKSCDKTHTCPPCPAPELLGGDSVFLFPPKPKDTLMISRTPEVTCVVVDVSHEDPEVKFNWYVDGVEVHNAKTKPREEQYNSTYRVVSVLTVLHQDWLNGKEYKCKVSNKALPAPIEKTISKAKGQPREPQVYTLPPSRKELTKNQVSLTCLVKGFYPSDIAVEWESNGQPENNYKTTPPVLDSDGSFFLYSKLTVDKSRWQQGNVFSCSVMHEALHNRYTQKSLSLSP heavy 2: not shown light: DIVMTQSPLSLPVTPGEPASISCQASESLVHSNRNTYLHWYLQKPGQSPQLLIYKVSNRFSGVPDRFSGSGSGTDFTLKISRVEAEDVGVYYCSQNTHVPPTFGQGTKVEIERTVAAPSVFIFPPSDEQLKSGTASVVCLLNNFYPREAKVQWKVDNALQSGNSQESVTEQDSKDSTYSLSSTLTLSKADYEKHKVYACEVTHQGLSSPVTKSFNRGEC |
| 131 | 72 | 2.2 | GpH7-AP001/GpH7-BP069/GpL16-k0 (antibody, human IgG1, kappa, name in EU numbering, Heterodimerized anti-glypican 3 IgG1) heavy 1: QVQLVQSGAEVKKPGASVTVSCKASGYTFTDYEMHWIRQPPGEGLEWIGAIDPKTGDTAYSESFQDRVTLTADKSTSTAYMELSSLTSEDTAVYYCTRFYSYTYWGQGTLVTVSSASTKGPSVFPLAPSSKSTSGGTAALGCLVKDYFPEPVTVSWNSGALTSGVHTFPAVLQSSGLYSLSSVVTVPSSSLGTQTYICNVNHKPSNTKVDKKVEPKSCDKTHTCPPCPAPELLGGDSVFLFPPKPKDTLMISRTPEVTCVVVDVSHEDPEVKFNWYVDGVEVHNAKTKPREEQYNSTYRVVSVLTVLHQDWLNGKEYKCKVSNKALPAPIEKTISKAKGQPREPQVYTLPPSRKELTKNQVSLTCLVKGFYPSDIAVEWESNGQPENNYKTTPPVLDSDGSFFLYSKLTVDKSRWQQGNVFSCSVMHEALHNRYTQKSLSLSP heavy 2: not shown light: DIVMTQSPLSLPVTPGEPASISCQASESLVHSNRNTYLHWYLQKPGQSPQLLIYKVSNRFSGVPDRFSGSGSGTDFTLKISRVEAEDVGVYYCSQNTHVPPTFGQGTKVEIERTVAAPSVFIFPPSDEQLKSGTASVVCLLNNFYPREAKVQWKVDNALQSGNSQESVTEQDSKDSTYSLSSTLTLSKADYEKHKVYACEVTHQGLSSPVTKSFNRGEC |
| 538 | 129 | 1 | GpH7-AP001/GpH7-BP032/GpL16-k0 (antibody, human IgG1, kappa, Heterodimerized anti-glypican 3 IgG1; copies: 1 + 1 + 2) heavy 1: QVQLVQSGAEVKKPGASVTVSCKASGYTFTDYEMHWIRQPPGEGLEWIGAIDPKTGDTAYSESFQDRVTLTADKSTSTAYMELSSLTSEDTAVYYCTRFYSYTYWGQGTLVTVSSASTKGPSVFPLAPSSKSTSGGTAALGCLVKDYFPEPVTVSWNSGALTSGVHTFPAVLQSSGLYSLSSVVTVPSSSLGTQTYICNVNHKPSNTKVDKKVEPKSCDKTHTCPPCPAPELLGGDSVFLFPPKPKDTLMISRTPEVTCVVVDVSHEDPEVKFNWYVDGVEVHNAKTKPREEQYNSTYRVVSVLTVLHQDWLNGKEYKCKVSNKALPAPIEKTISKAKGQPREPQVYTLPPSRKELTKNQVSLTCLVKGFYPSDIAVEWESNGQPENNYKTTPPVLDSDGSFFLYSKLTVDKSRWQQGNVFSCSVMHEALHNRYTQKSLSLSP heavy 2: not shown light: DIVMTQSPLSLPVTPGEPASISCQASESLVHSNRNTYLHWYLQKPGQSPQLLIYKVSNRFSGVPDRFSGSGSGTDFTLKISRVEAEDVGVYYCSQNTHVPPTFGQGTKVEIERTVAAPSVFIFPPSDEQLKSGTASVVCLLNNFYPREAKVQWKVDNALQSGNSQESVTEQDSKDSTYSLSSTLTLSKADYEKHKVYACEVTHQGLSSPVTKSFNRGEC |

From patent US20210261648A1 (published 2021)
